In PMC4004597:

What was measured:
[1] = molecular target: S. cerevisiae Nsp1 of the short scNup49-Nup57-Nsp1 complex (S. cerevisiae) (UniProt P14907); assay: SEC
[2] = molecular target: S. cerevisiae Nsp1 of the short scNup49-Nup57-Nsp1 complex (S. cerevisiae) (UniProt P14907); assay: AUC
[3] = molecular target: S. cerevisiae Nup57 of the short scNup49-Nup57-Nsp1 complex (S. cerevisiae) (UniProt P48837); assay: SEC
[4] = molecular target: S. cerevisiae Nup57 of the short scNup49-Nup57-Nsp1 complex (S. cerevisiae) (UniProt P48837); assay: AUC

Sequence of S. cerevisiae Nup57 of the short scNup49-Nup57-Nsp1 complex (S. cerevisiae) (P48837 whole entry, one chain of several): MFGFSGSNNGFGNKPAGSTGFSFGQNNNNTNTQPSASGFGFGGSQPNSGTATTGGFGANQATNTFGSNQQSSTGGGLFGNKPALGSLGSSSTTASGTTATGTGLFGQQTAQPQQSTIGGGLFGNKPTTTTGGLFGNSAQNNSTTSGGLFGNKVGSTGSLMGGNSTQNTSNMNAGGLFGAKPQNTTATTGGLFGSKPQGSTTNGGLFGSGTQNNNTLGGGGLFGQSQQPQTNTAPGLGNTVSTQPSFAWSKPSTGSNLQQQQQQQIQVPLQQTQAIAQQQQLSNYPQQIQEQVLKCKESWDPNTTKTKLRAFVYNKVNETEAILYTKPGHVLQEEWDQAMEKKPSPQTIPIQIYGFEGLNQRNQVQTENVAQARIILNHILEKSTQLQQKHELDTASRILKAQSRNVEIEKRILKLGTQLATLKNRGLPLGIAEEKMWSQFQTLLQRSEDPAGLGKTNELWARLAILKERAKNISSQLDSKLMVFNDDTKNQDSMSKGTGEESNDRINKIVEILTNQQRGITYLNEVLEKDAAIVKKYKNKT

stoichiometry N [1]	stoichiometry N [2]	stoichiometry N [3]	stoichiometry N [4]	Substance
1	1			S. cerevisiae Nup57 of the short scNup49-Nup57-Nsp1 complex (from UniProt P48837 1-541) (domain or fragment)
		1	1	S. cerevisiae Nup49 of the short scNup49-Nup57-Nsp1 complex (from UniProt Q02199 1-472) (domain or fragment)
